These results are taken from patent US20110177077A1.

Test [1] concerns the target human PAX 5 protein (human) (UniProt Q02548). The experiment in a line: IHC, Reed Sternberg cells, Hodkins lymphoma 3, antibody at 3 ug/mL.
For test [2] the target is unchanged. Nature of the test: IHC, Reed Sternberg cells, Hodkins lymphoma 2, antibody at 3 ug/mL.
Test [3] shares this target. The experiment in a line: IHC, Reed Sternberg cells, Hodkins lymphoma 1, antibody at 3 ug/mL.
The target is the same in test [4]. The experiment in a line: IHC, Reed Sternberg cells, Hodkins lymphoma 4, antibody at 3 ug/mL.

Sequence of UniProt Q02548 (Q02548 whole entry): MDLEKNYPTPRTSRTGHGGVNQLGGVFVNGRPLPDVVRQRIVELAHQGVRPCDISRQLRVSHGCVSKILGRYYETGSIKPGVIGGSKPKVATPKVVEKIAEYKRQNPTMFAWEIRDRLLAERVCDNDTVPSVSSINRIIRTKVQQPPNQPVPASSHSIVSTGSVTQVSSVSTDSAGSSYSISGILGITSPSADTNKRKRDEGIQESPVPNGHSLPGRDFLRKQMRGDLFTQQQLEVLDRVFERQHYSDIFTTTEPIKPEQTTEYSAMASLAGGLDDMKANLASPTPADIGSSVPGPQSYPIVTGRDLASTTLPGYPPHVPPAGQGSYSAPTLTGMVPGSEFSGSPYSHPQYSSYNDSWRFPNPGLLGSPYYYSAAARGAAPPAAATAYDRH

Take “monoclonal mouse B-Cell Specific Activator Protein (BSAP), clone DAK-Pax5 (antibody)”: the IHC staining intensity score (score on a scale of 0 to 6) in test [1] stood at 2; in test [2], 0; in test [3], 6; in test [4], 6.
Regarding “monoclonal mouse PAX 5, clone 24 (BD Biosciences) (antibody)”, the IHC staining intensity score (score on a scale of 0 to 6) was 1 in test [1], 0 in test [2], 2 in test [3] and 2 in test [4].
